# Laboratory results taken from the supplement of paper PMC10567573.
# B1: PKD2L1 (parent)
# chain: VFIFYYVVEEILELHIHRLRYLSS
# Variants of: B1
# Experiment: protein stability index of a GFP-peptide fusion (GPS, HEK-293T) (PSI 1-6); higher = more stable
# Conditions: c terminus: a fixed tail appended
# 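Also: lentivirally expressed fusions sorted by FACS into six bins by GFP to DsRed ratio, PSI derived from sequencing read proportions per bin multiplied by bin number.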
row,Variant,protein stability index
1,VFIFYHVVEEILELHIHRLRYLSS [Y6H],2.85
2,VFIFYTVVEEILELHIHRLRYLSS [Y6T],3.44
3,VFIFYDVVEEILELHIHRLRYLSS [Y6D],2.42
4,VFIFYWVVEEILELHIHRLRYLSS [Y6W],3.85
5,VFYFYYVVEEILELHIHRLRYLSS [I3Y],3.43
6,VFGFYYVVEEILELHIHRLRYLSS [I3G],2.35
7,VFMFYYVVEEILELHIHRLRYLSS [I3M],3.13
8,VFPFYYVVEEILELHIHRLRYLSS [I3P],3.06
9,VFSFYYVVEEILELHIHRLRYLSS [I3S],2.73
10,VFTFYYVVEEILELHIHRLRYLSS [I3T],1.54
11,VFNFYYVVEEILELHIHRLRYLSS [I3N],3.08
12,VFFFYYVVEEILELHIHRLRYLSS [I3F],2.89
13,VFRFYYVVEEILELHIHRLRYLSS [I3R],3.57
14,VFHFYYVVEEILELHIHRLRYLSS [I3H],1.62
15,VFLFYYVVEEILELHIHRLRYLSS [I3L],2.25
16,VFAFYYVVEEILELHIHRLRYLSS [I3A],1.69
17,VFEFYYVVEEILELHIHRLRYLSS [I3E],4
18,VFDFYYVVEEILELHIHRLRYLSS [I3D],3.59
19,VFISYYVVEEILELHIHRLRYLSS [F4S],2.7
20,VFIMYYVVEEILELHIHRLRYLSS [F4M],2.56
21,VFIAYYVVEEILELHIHRLRYLSS [F4A],4
22,VFIWYYVVEEILELHIHRLRYLSS [F4W],1.29
23,VFIQYYVVEEILELHIHRLRYLSS [F4Q],2.99
24,VFIKYYVVEEILELHIHRLRYLSS [F4K],2.57

row,Variant,protein stability index
1,VFINYYVVEEILELHIHRLRYLSS [F4N],2.21
2,VFIIYYVVEEILELHIHRLRYLSS [F4I],1.48
3,VFIHYYVVEEILELHIHRLRYLSS [F4H],2.09
4,VFIGYYVVEEILELHIHRLRYLSS [F4G],3.56
5,VFIYYYVVEEILELHIHRLRYLSS [F4Y],2.36
6,VFIVYYVVEEILELHIHRLRYLSS [F4V],3.48
7,VFIFYYVVEWILELHIHRLRYLSS [E10W],2.69
8,VFIFYYVVELILELHIHRLRYLSS [E10L],2.35
9,VFIFYYVVEPILELHIHRLRYLSS [E10P],2.76
10,VFIFYYVVEDILELHIHRLRYLSS [E10D],2.75
11,VFIFYYVVEAILELHIHRLRYLSS [E10A],3.28
12,VFIFYYVVETILELHIHRLRYLSS [E10T],1.62
13,VFIFYYVVECILELHIHRLRYLSS [E10C],1.36
14,VFIFYYVVERILELHIHRLRYLSS [E10R],2.41
15,VFIFYYVVEIILELHIHRLRYLSS [E10I],2.56
16,VFIFYYVVENILELHIHRLRYLSS [E10N],2.86
17,VFIFYYVVEHILELHIHRLRYLSS [E10H],2.68
18,VFIFYYVVDEILELHIHRLRYLSS [E9D],3.91
19,VFIFYYVVCEILELHIHRLRYLSS [E9C],1.88
20,VFIFYYVVIEILELHIHRLRYLSS [E9I],3.16
21,VFIFYYVVSEILELHIHRLRYLSS [E9S],1.63
22,VFIFYYVVQEILELHIHRLRYLSS [E9Q],2.61
23,VFIFYYVVWEILELHIHRLRYLSS [E9W],4.55
24,VFIFYYVVKEILELHIHRLRYLSS [E9K],3.5

row,Variant,protein stability index
1,VFIFYYVVNEILELHIHRLRYLSS [E9N],2.21
2,VFIFYYVVREILELHIHRLRYLSS [E9R],4
3,VFIFYYVVPEILELHIHRLRYLSS [E9P],2.49
4,VFIFYYVVGEILELHIHRLRYLSS [E9G],1.71
5,VFIFYYVVYEILELHIHRLRYLSS [E9Y],1.67
6,VFIFYYVVEEDLELHIHRLRYLSS [I11D],2.57
7,VFIFYYVVEEFLELHIHRLRYLSS [I11F],3.73
8,VFIFYYVVEEHLELHIHRLRYLSS [I11H],1.24
9,VFIFYYVVEEKLELHIHRLRYLSS [I11K],2.51
10,VFIFYYVVEEMLELHIHRLRYLSS [I11M],2.46
11,VFIFYYVVEEPLELHIHRLRYLSS [I11P],1.89
12,VFIFYYVVEEGLELHIHRLRYLSS [I11G],2.73
13,VFIFYYVVEEELELHIHRLRYLSS [I11E],3.87
14,VFIFYYVVEEQLELHIHRLRYLSS [I11Q],3.96
15,VFIFYYVVEENLELHIHRLRYLSS [I11N],3.75
16,VFIFYYVVEEVLELHIHRLRYLSS [I11V],3.46
17,VFIFYYVVEESLELHIHRLRYLSS [I11S],3.09
18,VFIFYYVVEECLELHIHRLRYLSS [I11C],4.54
19,VFIFYYVVEETLELHIHRLRYLSS [I11T],2.64
20,VFIFYYVVEEYLELHIHRLRYLSS [I11Y],2.68
21,VFIFYYVVEEILTLHIHRLRYLSS [E13T],2.24
22,VFIFYYVVEEILILHIHRLRYLSS [E13I],3.04
23,VFIFYYVVEEILVLHIHRLRYLSS [E13V],3.39
24,VFIFYYVVEEILHLHIHRLRYLSS [E13H],3.19

row,Variant,protein stability index
1,VFIFYYVVEEILFLHIHRLRYLSS [E13F],3.37
2,VFIFYYVVEEILYLHIHRLRYLSS [E13Y],1.93
3,VFIFYYVVEEILLLHIHRLRYLSS [E13L],3.25
4,VFIFYYVVEEILSLHIHRLRYLSS [E13S],1.92
5,VFIFYYVVEEILRLHIHRLRYLSS [E13R],3.68
6,VFIFYYVVEEILWLHIHRLRYLSS [E13W],3.26
7,VFIFYYVVEEILMLHIHRLRYLSS [E13M],2.72
8,VFIFYYVVEEILCLHIHRLRYLSS [E13C],3.03
9,VFIFYYVVEEILPLHIHRLRYLSS [E13P],2.44
10,VFIFYYVVEEILKLHIHRLRYLSS [E13K],2.36
11,VFIFYYVVEEILDLHIHRLRYLSS [E13D],2.04
12,VFIFYYVVEEILELTIHRLRYLSS [H15T],2.71
13,VFIFYYVVEEILELCIHRLRYLSS [H15C],2.86
14,VFIFYYVVEEILELRIHRLRYLSS [H15R],2.97
15,VFIFYYVVEEILELYIHRLRYLSS [H15Y],3.19
16,VFIFYYVVEEILELMIHRLRYLSS [H15M],3.1
17,VFIFYYVVEEILELDIHRLRYLSS [H15D],2.24
18,VFIFYYVVEEILELVIHRLRYLSS [H15V],2.21
19,VFIFYYVVEEILELNIHRLRYLSS [H15N],3.63
20,VFIFYYVVEEILELPIHRLRYLSS [H15P],3.51
21,VFIFYYVVEEILELWIHRLRYLSS [H15W],2.13
22,VFIFYYVVEEILELHIARLRYLSS [H17A],2.18
